In one test the target is GST-MYC(1-263) (human). Nature of the test: pull-down + cross-linking.
In test [1] the target is GST-MYC(2-108) E[54,100]A (human). The test is described as follows: pull-down.
For test [2], the target named is GST-MYC(2-108) E100A (human). The test is described as follows: pull-down.
The target of test [3] is GST-MYC(2-108) E54A (human). Nature of the test: pull-down.
Another test concerns the target GST-MYC 1-98 (human). The test is described as follows: pull-down.

Take “GCN5 acetyltransferase, endogenous in HeLa cells (from UniProt Q92830 1-837) (enzyme)”: in the test with GST-MYC(1-263) (human), the percent of the protein in the extract crosslinked came to 1%.

Regarding “purified recombinant human GCN5-S (pRSETA-His6-GCN5-S) (enzyme)”, the values for the percent reduction of GCN5 binding against wt GST-MYC(2-108) in test [1], in test [2] and in test [3] were 50%, 20% and 40%, respectively. In the test with GST-MYC 1-98 (human), this substance returned a percent reduction of GCN5 binding on deletion of residues 99-108 of 90%.

For “transcription/transformation-associated protein (TRRAP), endogenous in HeLa cells (from UniProt Q9Y4A5 1-3859) (natural protein)”, the percent of the protein in the extract crosslinked in the test with GST-MYC(1-263) (human) was determined as 1%.

The values are drawn from publication PMC4039629.
